One molecule from publication PMC3949604 can be followed below.

This data set has as its target AhR (baculovirus);Arnt (baculovirus) (human;human, UniProt P35869;P27540 1-848;1-789, |). Briefly: EMSA.

AhR (baculovirus);Arnt (baculovirus), sequence (P35869 whole entry, chain 1 of 2): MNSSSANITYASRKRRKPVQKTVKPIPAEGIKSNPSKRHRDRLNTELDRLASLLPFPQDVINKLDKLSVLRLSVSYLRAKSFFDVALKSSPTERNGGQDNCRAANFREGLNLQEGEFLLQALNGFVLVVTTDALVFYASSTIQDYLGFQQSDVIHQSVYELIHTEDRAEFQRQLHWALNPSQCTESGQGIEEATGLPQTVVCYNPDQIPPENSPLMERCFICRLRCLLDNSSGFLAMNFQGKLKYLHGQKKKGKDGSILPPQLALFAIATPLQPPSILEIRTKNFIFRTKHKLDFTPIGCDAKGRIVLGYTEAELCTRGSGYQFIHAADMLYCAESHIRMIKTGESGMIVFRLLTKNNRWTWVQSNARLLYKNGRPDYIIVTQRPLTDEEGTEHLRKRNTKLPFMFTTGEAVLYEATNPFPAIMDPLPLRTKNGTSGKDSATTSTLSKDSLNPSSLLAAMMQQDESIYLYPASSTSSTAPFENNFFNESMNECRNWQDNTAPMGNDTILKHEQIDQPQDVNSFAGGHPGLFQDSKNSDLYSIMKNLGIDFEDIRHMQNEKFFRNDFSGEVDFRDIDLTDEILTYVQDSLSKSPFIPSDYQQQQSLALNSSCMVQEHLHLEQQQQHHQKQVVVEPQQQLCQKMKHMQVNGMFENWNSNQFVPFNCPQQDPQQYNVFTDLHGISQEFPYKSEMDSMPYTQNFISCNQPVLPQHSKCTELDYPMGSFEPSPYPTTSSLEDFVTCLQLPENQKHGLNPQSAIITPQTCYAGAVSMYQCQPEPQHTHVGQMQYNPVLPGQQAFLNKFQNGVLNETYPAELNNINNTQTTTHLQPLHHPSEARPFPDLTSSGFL
AhR (baculovirus);Arnt (baculovirus), sequence (P27540 whole entry, chain 2 of 2): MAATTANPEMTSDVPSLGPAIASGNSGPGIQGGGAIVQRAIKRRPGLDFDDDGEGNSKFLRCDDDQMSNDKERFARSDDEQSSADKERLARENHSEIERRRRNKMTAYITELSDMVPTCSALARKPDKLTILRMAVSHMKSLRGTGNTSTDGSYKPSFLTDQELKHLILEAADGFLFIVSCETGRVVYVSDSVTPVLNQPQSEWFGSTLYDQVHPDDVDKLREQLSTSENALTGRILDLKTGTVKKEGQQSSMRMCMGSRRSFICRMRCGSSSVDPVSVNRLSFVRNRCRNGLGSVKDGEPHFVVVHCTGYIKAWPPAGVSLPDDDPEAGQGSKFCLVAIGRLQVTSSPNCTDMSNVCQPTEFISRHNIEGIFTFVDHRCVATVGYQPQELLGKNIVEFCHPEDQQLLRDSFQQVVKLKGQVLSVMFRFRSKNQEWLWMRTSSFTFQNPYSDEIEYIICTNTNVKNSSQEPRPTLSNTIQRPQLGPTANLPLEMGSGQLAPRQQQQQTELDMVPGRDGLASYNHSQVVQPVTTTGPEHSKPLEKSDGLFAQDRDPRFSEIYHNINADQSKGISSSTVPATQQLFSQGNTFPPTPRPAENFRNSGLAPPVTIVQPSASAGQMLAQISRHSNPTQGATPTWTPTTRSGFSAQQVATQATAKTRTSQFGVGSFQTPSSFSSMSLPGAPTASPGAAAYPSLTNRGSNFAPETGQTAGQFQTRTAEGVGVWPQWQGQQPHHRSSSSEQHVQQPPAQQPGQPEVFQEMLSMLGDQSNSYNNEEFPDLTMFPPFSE

B1: DRE gel shift probe (OL439/OL440) (dsDNA)
DNA 1: TCGAGTAGATCACGCAATGGGCCCAGC
DNA 2: TCGAGCTGGGCCCATTGCGTGATCTAC
As to B1, the binding result is reported as “binds”.
